Source: US20240100176A1 (Eli Lilly, published 2024)

Legend:
[1] = target: T1, human IL-4Rα on cells (human PBMC B cells and CD4+ T cells, Daudi cells, HEK-Blue IL-4/IL-13 cells, myeloid … (human, UniProt P24394 26-825)); assay: cell-based or functional assay
T1 sequence: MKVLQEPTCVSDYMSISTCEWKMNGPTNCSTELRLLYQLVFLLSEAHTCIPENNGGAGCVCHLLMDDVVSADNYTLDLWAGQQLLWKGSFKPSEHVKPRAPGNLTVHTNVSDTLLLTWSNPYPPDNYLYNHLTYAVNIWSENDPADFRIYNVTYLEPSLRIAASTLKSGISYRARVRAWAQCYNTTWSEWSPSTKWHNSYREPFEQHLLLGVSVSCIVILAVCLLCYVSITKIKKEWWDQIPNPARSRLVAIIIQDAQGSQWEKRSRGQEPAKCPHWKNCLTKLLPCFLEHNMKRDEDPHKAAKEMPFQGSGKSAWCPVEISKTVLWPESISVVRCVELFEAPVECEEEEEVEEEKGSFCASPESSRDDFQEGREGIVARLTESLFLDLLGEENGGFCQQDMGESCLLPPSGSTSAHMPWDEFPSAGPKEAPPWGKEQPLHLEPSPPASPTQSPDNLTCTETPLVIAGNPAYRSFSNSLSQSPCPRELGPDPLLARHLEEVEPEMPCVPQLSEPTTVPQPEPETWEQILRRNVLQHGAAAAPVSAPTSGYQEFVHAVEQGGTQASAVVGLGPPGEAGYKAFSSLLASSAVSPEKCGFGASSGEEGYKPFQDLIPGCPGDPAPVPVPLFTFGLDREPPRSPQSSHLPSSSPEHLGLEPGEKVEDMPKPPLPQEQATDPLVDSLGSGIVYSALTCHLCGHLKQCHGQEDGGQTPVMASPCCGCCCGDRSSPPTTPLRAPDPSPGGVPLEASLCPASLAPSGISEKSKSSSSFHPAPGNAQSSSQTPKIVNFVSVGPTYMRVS

[2] = target: T1, human IL-4Rα on cells (human PBMC B …); assay: cell-based or functional assay; remark: listed apart in the source
[3] = target: T1, human IL-4Rα on cells (human PBMC B …); assay: flow cytometry on human PBMCs, B cells, Alexa Fluor 647 labelled antibody
Procedure: (§1) Example 3b. Binding to B cells and T cells: Binding of the exemplified anti-human IL-4Rα antibodies to B cells and T cells was tested in a Fluorescence Activated Cell Sorting (FACS) assay. […] Freshly isolated cells PBMCs were resuspended at 2×10⁶ cells/mL and allowed to rest for 15 minutes at room temperature, then plated at 100 μL/well into a round bottom 96-well plate (COSTAR®) and washed with FACS buffer (PBS containing 2% fetal bovine serum from Corning®). Exemplified anti-human IL-4Rα antibodies and the respective control IgG antibodies conjugated to Alexa Fluor® 647 according to manufacturer's protocol (Thermo Fisher Scientific) were added to the wells at 66.67 nM and diluted 4-fold in duplicate. Equivalent volume of 2× antibody cocktail containing: Human TruStain FcX™. FITC anti-human CD3 Antibody, Alexa Fluor® 700 anti-human CD4 Antibody (all from Biolegend®) and CD20 Monoclonal Antibody (2H7), PerCP-Cyanine5.5 (Thermo Fisher Scientific) was then added to the wells. Cells were incubated at 4° C. for 30 minutes, washed twice with FACS buffer and resuspended in a final volume of 100 μL FACS buffer. Viability dye, Sytox™ blue (Thermo Fisher Scientific), was added and the samples were analyzed via a flow cytometer (LSRFortessa™ X-20; BD BIOSCIENCES). Data analysis was performed using FlowJo software and statistical analysis was performed using GraphPad Prism 9. […]

[4] = target: T2, human FcγRI (CD64) extracellular domain (human, UniProt P12314 16-292); assay: SPR (Biacore), antibody captured on protein A, FcγR ECD as analyte, 25 °C
T2 construct: extracellular domain
Procedure: Unreacted sites were blocked with a 7 minute injection of ethanolamine at 10 μL/minute. Injections of 2×10 μL of glycine, pH 1.5, was used to remove any noncovalently associated protein. Running buffer was 1×HBS-EP+(TEKNOVA, P/N H8022). The FcγR extracellular domains (ECDs)-FcγRI (CD64), FcγRIIA_131R, and FcγRIIA_131H (CD32a), FcγRIIIA_158V, FcγRIIIA_158F (CD16a), and FcγRIIb (CD32b) were produced from stable CHO cell expression and purified using IgG Sepharose and size exclusion chromatography. For FcγRI binding, antibodies were diluted to […] in running buffer, and approximately 150 RU of each antibody was captured in FCs 2 through 4 (RU captured). FC1 was the reference FC, therefore no antibody was captured in FC1. […] Duplicate injections of each concentration were injected over all FCs at 40 μL/minute for 120 seconds followed by a 1200 second dissociation phase. Regeneration was performed by injecting 15 μL of 10 mM glycine, pH 1.5, at 30 μL/minute over all FCs. […] The affinity (KD) was calculated using either steady state equilibrium analysis with the Scrubber 2 Biacore Evaluation Software or a “1:1 (Langmuir) binding” model in BIA Evaluation. […] The affinity (KD) was calculated using the steady state equilibrium analysis with the Scrubber 2 Biacore Evaluation Software. […]

[5] = target: T3, human FcγRIIA_131H (CD32a) extracellular domain (human, UniProt P12318 34-217); assay: SPR (Biacore), antibody captured on protein A, FcγR ECD as analyte, steady state, 25 °C
T3 construct: extracellular domain
T3 sequence (looked up): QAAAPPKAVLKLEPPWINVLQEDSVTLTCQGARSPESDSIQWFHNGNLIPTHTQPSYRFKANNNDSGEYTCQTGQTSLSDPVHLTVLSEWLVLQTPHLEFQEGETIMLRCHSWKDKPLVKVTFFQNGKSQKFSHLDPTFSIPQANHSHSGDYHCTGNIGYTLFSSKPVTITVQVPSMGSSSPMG
Procedure: (§2) Unreacted sites were blocked with a 7 minute injection of ethanolamine at 10 μL/minute. Injections of 2×10 μL of glycine, pH 1.5, was used to remove any noncovalently associated protein. Running buffer was 1×HBS-EP+(TEKNOVA, P/N H8022). The FcγR extracellular domains (ECDs)-FcγRI (CD64), FcγRIIA_131R, and FcγRIIA_131H (CD32a), FcγRIIIA_158V, FcγRIIIA_158F (CD16a), and FcγRIIb (CD32b) were produced from stable CHO cell expression and purified using IgG Sepharose and size exclusion chromatography. For FcγRI binding, antibodies were diluted to […] in running buffer, and approximately 150 RU of each antibody was captured in FCs 2 through 4 (RU captured). FC1 was the reference FC, therefore no antibody was captured in FC1. […] Duplicate injections of each concentration were injected over all FCs at 40 μL/minute for 120 seconds followed by a 1200 second dissociation phase. Regeneration was performed by injecting 15 μL of 10 mM glycine, pH 1.5, at 30 μL/minute over all FCs. Reference-subtracted data was collected as FC2 FC1, FC3-FC1, and FC4-FC1 and the measurements were obtained at 25° C. The affinity (KD) was calculated using either steady state equilibrium analysis with the Scrubber 2 Biacore Evaluation Software or a “1:1 (Langmuir) binding” model in BIA Evaluation. For FcγRIIa, FcγRIIb, and FcγRIIIa binding, antibodies were diluted to 5 μg/mL in running buffer, and approximately 500 RU of each antibody was captured in FCs 2 through 4). FC1 was the reference FC. […] Duplicate injections of each concentration were injected over all FCs at 40 μL/minute for 60 seconds followed by a 120 second dissociation phase. Regeneration was performed by injecting 15 μL of 10 mM glycine, pH 1.5, at 30 μL/minute over all FCs. Reference-subtracted data was collected as FC2-FC1, FC3-FC1, and FC4-FC1, and the measurements were obtained at 25° C. The affinity (KD) was calculated using the steady state equilibrium analysis with the Scrubber 2 Biacore Evaluation Software. Each receptor was assayed at least two times.

[6] = target: T4, human FcγRIIb (CD32b) extracellular domain (human, UniProt P31994 43-217); assay: as above
T4 construct: extracellular domain
T4 sequence (looked up): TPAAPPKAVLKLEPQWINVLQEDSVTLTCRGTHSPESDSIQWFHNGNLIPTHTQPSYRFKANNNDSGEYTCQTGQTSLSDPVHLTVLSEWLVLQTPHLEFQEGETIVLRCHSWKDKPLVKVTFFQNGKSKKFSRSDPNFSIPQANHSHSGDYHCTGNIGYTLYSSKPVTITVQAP
Procedure: as §2

[7] = target: T1, human IL-4Rα on cells (human PBMC B …); assay: flow cytometry on human PBMCs, CD20 B cells, Alexa Fluor 647 labelled antibody, percent IL-4Rα positive cells
Procedure: as §1

[8] = target: T1, human IL-4Rα on cells (human PBMC B …); assay: flow cytometry on human PBMCs, CD4-positive T cells, Alexa Fluor 647 labelled antibody, percent IL-4Rα positive cells
Procedure: as §1

[9] = target: T5, IL-4Rα (target of the affinity engineering of Ab10; form not stated) (UniProt P24394 26-232, limits assumed); assay: affinity during CDR mutagenesis of Ab10 (engineered as a Fab); method and antigen form not stated; order of magnitude only
T5 sequence (looked up): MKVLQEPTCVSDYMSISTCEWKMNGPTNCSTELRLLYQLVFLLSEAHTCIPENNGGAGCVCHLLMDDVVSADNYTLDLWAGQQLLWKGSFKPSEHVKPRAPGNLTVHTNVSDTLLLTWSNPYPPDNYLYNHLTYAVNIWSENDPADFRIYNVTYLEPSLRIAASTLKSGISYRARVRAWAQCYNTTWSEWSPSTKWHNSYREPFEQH

T2 sequence (P12314 16-292): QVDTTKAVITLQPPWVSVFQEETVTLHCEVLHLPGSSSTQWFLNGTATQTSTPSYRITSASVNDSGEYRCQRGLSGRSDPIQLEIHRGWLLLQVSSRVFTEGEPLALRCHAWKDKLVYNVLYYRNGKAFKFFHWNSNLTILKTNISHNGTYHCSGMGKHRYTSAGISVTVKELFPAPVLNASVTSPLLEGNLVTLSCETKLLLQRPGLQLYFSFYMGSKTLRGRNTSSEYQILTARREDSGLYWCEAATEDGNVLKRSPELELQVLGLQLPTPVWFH

B1: anti-human IL-4Rα antibody Ab7 (antibody, human IgG1, kappa)
heavy: not shown
light: DIQMTQSPSAMSASVGDRVTITCRASQDISNYLAWFQQKPGKVPTRLIYAASSLQSGVPSRFSGSGSGTEFTLTISSLQPEDFATYYCLQWSSYPRTFGQGTKVEIKRTVAAPSVFIFPPSDEQLKSGTASVVCLLNNFYPREAKVQWKVDNALQSGNSQESVTEQDSKDSTYSLSSTLTLSKADYEKHKVYACEVTHQGLSSPVTKSFNRGEC
notes: Human IgG1 backbone
- IL-4 IC50 (nM): inhibition of IL-4 induced SEAP activity in HEK-Blue IL-4R and IL-13R expressing cells [1]: 0.07 nM
- IL-13 IC50 (nM): inhibition of IL-13 induced SEAP activity in HEK-Blue IL-4R and IL-13R expressing cells [1]: 0.51 nM
- Inhibition of IL-4 induced B cell proliferation, IC50 [2]: 0.95 nM
- EC50 [3]: 0.27 nM
- Kd [4]: 0.0428 nM
- Kd [5]: 1240 nM
- Kd [6]: 3020 nM
- EC50 [7]: 0.14 nM
- EC50 [8]: 28.7 nM

B2: Ab10 variant with the LCDR3 substitutions H91W, N92S (antibody, V domains shown)
VH: QVQLVESGGGLVQPGGSLRLSCAASGFTFSISSMNWVRQAPGKGLEWVSYISRATGAIYYADSVKGRFTISRNNAKNSLYLQMNSLRDEDTAVYYCAREPVFDYWGQGTLVTVSS
VL: DIQMTQSPSAMSASVGDRVTITCRASQGISNYLAWFQQKPGKVPTRLIYAASSLQSGVPSRFSGSGSGTEFTLTISSLQPEDFATYYCLQWSSYPRTFGQGTKVEIK
notes: also called the resulting antibody
- Kd [9]: ~0.01 nM
